Assay results as given in patent US20190227052A1 (published 2019).
Positions count from the first letter of the chain named. Blank lines part the entries; values can stand above or below the binder they belong to.

Target: human NRP1 protein (human, UniProt O14786 22-856)
Assay: ELISA

Chain of human NRP1 protein (O14786 22-856): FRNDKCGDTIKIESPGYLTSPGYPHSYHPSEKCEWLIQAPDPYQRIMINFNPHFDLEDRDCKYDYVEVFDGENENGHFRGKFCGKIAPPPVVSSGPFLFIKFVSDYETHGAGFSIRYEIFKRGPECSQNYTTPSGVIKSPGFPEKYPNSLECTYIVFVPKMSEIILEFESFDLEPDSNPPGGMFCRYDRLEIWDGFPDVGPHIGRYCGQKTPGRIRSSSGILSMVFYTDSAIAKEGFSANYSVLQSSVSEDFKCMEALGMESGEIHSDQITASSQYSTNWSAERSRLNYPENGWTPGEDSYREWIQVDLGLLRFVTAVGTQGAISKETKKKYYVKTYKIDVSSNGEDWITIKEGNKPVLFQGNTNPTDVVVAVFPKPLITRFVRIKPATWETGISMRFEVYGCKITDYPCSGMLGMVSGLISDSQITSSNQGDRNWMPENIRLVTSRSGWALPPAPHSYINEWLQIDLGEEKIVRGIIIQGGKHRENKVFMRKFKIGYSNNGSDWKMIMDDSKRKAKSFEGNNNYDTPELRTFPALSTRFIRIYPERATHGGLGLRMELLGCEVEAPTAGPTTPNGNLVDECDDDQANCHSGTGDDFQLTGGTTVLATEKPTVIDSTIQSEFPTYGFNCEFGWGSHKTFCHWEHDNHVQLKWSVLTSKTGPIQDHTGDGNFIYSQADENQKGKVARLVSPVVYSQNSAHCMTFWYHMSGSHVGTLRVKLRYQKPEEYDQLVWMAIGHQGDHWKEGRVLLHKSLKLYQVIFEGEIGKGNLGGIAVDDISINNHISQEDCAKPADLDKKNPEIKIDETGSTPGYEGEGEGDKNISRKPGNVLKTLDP

Kd: 1110 nM
B1: 1A03 anti-NRP1 IgG antibody (antibody, V domains shown)
VH: EVQLLESGGGLVQFGGSLRLSQAASGFTFSSYYMSWVRQAFGKGLEWVSAISFGSSNKYYADSVQGRFTISRDNSKNTLYLQMNELRAEDTAVYYCARRKKSFDYWGQGTLVTVSS
VL: QSVLTQFFSASGTPGQRVTISCSGFSSNIGNNDVSWYQQLFGTAPKLLIYSCNNRPSGVPDRFSGSKSGTSASLAISGLSSDEADYYCGAWVASLSAYVFGGGTKLTVTL

Kd: 426 nM
B2: IRCR-101 (3H10 converted into IgG format) (antibody, V domains shown)
VH: B1 VH with G15Q, G16Q, G26Q, F53P, Q65K, K101Y, S102M
VL: GSVLTQPPSASGTPGQRVTISCTGESSNIGNNDVYWYQQLPGTAFKLLIYSQSNRSGMPDRFSGSKSGTSASLAISGLRSEDEADYYCASWDSSLSGYVFGGGTKLTVTL
